Consider three substances from patent publication US20100028347A1.

Test [1] addresses human VEGFR-2 alkaline phosphatase (human) (UniProt P35968). In words: ELISA: antibody dilutions on plate coated with 1 µg/ml human VEGFR-2 alkaline phosphatase, HRP secondary, O.D. 450. Background: ELISA stands for enzyme-linked immunosorbent assay.
For test [2] the target is unchanged. Kind of test: ELISA: plate coated with huVEGFR-2-AP 100 ng/well, goat anti-human kappa-HRP, O.D. 450.
Test [3] addresses native VEGFR-1 expressed on the cell surface (human) (UniProt P17948). Kind of test: flow cytometry on PAE-VEGFR-1 cells, FITC goat anti-human IgG. (In general: In flow cytometry, cells or beads pass a laser one at a time.)
Test [4] deals with mouse VEGFR-1 Fc (mouse) (UniProt P35969). In words: ELISA: antibody dilutions on plate coated with 1 µg/ml mouse VEGFR-1 Fc, HRP secondary, O.D. 450.
Test [5] concerns the target mouse VEGFR-1-AP (mouse) (UniProt P35969). Kind of test: ELISA: plate coated with mouse VEGFR-1-AP 100 ng/well, goat anti-rat IgG-HRP, O.D. 450.

Chain of human VEGFR-2 alkaline phosphatase (human) (P35968 20-764): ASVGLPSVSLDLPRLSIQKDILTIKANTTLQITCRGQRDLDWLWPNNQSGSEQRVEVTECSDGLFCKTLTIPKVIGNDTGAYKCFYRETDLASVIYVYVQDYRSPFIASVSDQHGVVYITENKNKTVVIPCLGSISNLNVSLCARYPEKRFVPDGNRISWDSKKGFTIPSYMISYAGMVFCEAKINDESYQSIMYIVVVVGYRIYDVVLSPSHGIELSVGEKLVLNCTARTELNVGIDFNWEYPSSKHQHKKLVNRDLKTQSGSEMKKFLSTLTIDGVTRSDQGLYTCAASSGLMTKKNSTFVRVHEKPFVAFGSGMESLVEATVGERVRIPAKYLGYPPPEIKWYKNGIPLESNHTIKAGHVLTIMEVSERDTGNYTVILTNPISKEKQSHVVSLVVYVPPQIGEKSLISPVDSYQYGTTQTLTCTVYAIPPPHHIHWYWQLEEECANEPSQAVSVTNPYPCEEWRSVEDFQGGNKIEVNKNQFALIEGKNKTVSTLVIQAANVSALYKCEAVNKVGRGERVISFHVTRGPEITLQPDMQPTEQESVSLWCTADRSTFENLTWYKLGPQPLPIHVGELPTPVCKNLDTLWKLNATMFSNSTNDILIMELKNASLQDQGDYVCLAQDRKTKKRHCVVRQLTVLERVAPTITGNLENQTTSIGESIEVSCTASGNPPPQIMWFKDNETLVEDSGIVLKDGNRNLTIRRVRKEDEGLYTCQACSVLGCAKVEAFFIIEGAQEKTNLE
Chain of native VEGFR-1 expressed on the cell surface (human) (P17948 27-1338): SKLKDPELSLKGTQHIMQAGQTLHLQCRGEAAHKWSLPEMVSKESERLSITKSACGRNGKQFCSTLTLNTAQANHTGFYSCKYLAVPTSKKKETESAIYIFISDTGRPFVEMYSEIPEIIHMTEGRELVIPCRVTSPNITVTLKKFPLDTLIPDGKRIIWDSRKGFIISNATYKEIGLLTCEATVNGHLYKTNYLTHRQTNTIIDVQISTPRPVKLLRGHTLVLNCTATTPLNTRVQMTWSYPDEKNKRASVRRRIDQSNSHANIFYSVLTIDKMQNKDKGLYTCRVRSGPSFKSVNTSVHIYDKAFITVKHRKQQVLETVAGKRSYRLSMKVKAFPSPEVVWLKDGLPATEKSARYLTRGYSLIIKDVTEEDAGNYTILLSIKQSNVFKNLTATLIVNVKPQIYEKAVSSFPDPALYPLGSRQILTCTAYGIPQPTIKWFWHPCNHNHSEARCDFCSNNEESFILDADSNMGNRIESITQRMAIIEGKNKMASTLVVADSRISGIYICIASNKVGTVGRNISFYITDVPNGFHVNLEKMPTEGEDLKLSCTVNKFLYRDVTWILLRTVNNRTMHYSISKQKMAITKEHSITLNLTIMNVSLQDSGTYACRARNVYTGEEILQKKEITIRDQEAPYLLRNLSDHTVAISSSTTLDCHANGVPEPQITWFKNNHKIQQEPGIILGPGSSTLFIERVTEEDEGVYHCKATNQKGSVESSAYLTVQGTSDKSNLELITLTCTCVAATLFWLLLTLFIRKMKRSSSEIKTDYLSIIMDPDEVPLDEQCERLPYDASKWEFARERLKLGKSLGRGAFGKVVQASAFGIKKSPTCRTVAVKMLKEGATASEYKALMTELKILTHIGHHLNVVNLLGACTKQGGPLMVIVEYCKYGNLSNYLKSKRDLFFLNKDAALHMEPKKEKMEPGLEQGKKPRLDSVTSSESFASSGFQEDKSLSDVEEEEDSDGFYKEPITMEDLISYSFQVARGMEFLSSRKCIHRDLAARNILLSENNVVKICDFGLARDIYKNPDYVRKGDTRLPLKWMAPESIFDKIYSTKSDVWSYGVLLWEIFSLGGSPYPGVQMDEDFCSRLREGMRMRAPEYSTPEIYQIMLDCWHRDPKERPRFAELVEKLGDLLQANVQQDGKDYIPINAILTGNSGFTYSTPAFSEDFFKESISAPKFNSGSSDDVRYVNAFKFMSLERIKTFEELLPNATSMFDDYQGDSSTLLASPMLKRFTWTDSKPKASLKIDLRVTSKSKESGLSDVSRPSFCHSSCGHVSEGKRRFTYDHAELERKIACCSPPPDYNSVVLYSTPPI
Chain of mouse VEGFR-1-AP (mouse) (P35969 23-759): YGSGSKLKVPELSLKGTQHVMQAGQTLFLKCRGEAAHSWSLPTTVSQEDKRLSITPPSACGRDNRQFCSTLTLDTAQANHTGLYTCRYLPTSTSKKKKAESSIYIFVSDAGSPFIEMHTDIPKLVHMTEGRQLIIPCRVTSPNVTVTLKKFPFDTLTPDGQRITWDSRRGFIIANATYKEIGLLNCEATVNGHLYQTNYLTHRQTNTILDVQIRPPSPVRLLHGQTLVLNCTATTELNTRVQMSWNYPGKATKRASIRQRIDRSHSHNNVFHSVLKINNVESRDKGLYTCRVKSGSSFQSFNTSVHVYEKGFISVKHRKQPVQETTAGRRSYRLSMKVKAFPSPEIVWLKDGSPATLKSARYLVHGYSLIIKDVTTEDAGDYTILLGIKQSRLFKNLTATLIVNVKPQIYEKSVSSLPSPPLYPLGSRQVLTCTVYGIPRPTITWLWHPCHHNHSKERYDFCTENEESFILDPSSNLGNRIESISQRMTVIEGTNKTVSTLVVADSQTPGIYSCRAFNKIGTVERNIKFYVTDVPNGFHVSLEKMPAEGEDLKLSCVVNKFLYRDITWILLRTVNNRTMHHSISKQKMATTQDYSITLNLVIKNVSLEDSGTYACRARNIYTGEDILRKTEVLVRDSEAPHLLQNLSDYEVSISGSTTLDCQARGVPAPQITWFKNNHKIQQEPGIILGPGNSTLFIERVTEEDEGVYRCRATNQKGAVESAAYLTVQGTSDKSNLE
Chain of mouse VEGFR-1 Fc (mouse) (P35969 23-759 limits assumed): as the sequence (P35969 23-759) above

The term EC50 (read off the curve) denotes the concentration giving half of the maximal effect. A low value points to an effect from little substance. Take 1C11 (antibody): the EC50 (read off the curve) in test [1] and in test [2] was 8 ng/mL throughout.

In test [3], Control IgG (antibody) had an MFI of 2.6.

Take rat anti-mouse VEGFR-1 antibody MF1: the concentration for a half-maximal effect (EC50 (read off the curve)) in test [4] and in test [5] was 0.8 ng/mL in each case.
